Data taken from publication PMC5636616, “Studies on the Interaction of the Histone Demethylase KDM5B with Tricarboxylic Acid Cycle Intermediates” (Journal of Molecular Biology, 2017).
Several values for one entry are separate records, joined by “and”; a condition that tells them apart may be missing. Identical values can stand only once.

Substrate: O=C(O)CCC(=O)C(=O)O
Assay: purified protein, by the assay type
Conditions: pH 7.5, 25.0 °C

B1: KDM5B (Homo sapiens) (protein)
chain: MEAATTLHPGPRPALPLGGPGPLGEFLPPPECPVFEPSWEEFADPFAFIHKIRPIAEQTGICKVRPPPDWQPPFACDVDKLHFTPRIQRLNELEAQTRVKLNFLDQIAKYWELQGSTLKIPHVERKILDLFQLNKLVAEEGGFAVVCKDRKWTKIATKMGFAPGKAVGSHIRGHYERILNPYNLFLSGDSLRCLQKPNLTTDTKDKEYKPHDIPQRQSVQPSETCPPARRAKRMRAEAMNIKIEPEETTEARTHNLRRRMGCPTPKCENEKEMKSSIKQEPIERKDYIVENEKEKPKSRSKKATNAVDLYVCLLCGSGNDEDRLLLCDGCDDSYHTFCLIPPLHDVPKGDWRCPKCLAQECSKPQEAFGFEQAARDYTLRTFGEMADAFKSDYFNMPVHMVPTELVEKEFWRLVSTIEEDVTVEYGADIASKEFGSGFPVRDGKIKLSPEEEEYLDSGWNLNNMPVMEQSVLAHITADICGMKLPWLYVGMCFSSFCWHIEDHWSYSINYLHWGEPKTWYGVPGYAAEQLENVMKKLAPELFVSQPDLLHQLVTIMNPNTLMTHEVPVYRTNQCAGEFVITFPRAYHSGFNQGFNFAEAVNFCTVDWLPLGRQCVEHYRLLHRYCVFSHDEMICKMASKADVLDVVVASTVQKDMAIMIEDEKALRETVRKLGVIDSERMDFELLPDDERQCVKCKTTCFMSAISCSCKPGLLVCLHHVKELCSCPPYKYKLRYRYTLDDLYPMMNALKLRAESYNEWALNVNEALEAKINKKKSLVSFKALIEESEMKKFPDNDLLRHLRLVTQDAEKCASVAQQLLNGKR
**Q.** Which Km (other: 0 μM oxaloacetate) does the source give for B1 here?
**A.** 5.0 µM

**Q.** What about the Km (other: 0 μM succinate) of the same protein?
**A.** 3.4 µM

**Q.** What about the Km (other: KDM5B(1–822), no inhibitor, 5 μM H3K4me2(1–21)) of the same protein?
**A.** 3 µM and 2.6 ± 0.6 µM

**Q.** What about the Km (other: Table S1, succinate data set, competitive inhibition model) of the same protein?
**A.** 3.01 µM

**Q.** And the Km (other: Table S2, oxaloacetate data set, competitive inhibition model)?
**A.** 5.91 µM
